{"source": "patent US12194082B2", "about": "“Compositions and methods for treatment of homocystinuria” (THE REGENTS OF THE UNIVERSITY OF COLORADO, priority 2016, dated 2025)", "key": {"[1]": {"assay": "Pharmacokinetics of PEGylated htCBS C15S in HO mice (plasma CBS activity)", "format": "in vivo", "procedure": "For 20NHS PEG-htCBS C15S, HO mice were administered SQ a dose of 5, 10 or 15 mg/kg dose or were administered IV a dose of 10 mg/kg. For 400MA-htCBS C15S, HO mice received a single dose of 10 mg/kg either SC or IV of one of the three forms: (i) a mixture of all species, where no separation of individual forms has been attempted (mix), (ii) a homoPEGylated specie (Peak 1), and (iii) a hetero/hemiPEGylated species (Peak 2).\nBoth male and female HO mice were used in this example, and each group contained 3 to 4 mice. Two groups of mice designated “A” and “B” were used for each route of administration to minimize the blood volume taken from any one mouse. For SC administration, blood was collected from group A at 0.5, 3, 24, and 72 hours post-injection and from group B at 1, 6, 48, and 96 hours post-injection. For IV administration, blood was collected from group A at 0.25, 1, 6, and 48 hours post-injection and from group B at 0.5, 3, 24, and 72 hours post-injection."}, "[2]": {"test_system": "Hcy, Cth, Cys", "assay": "Plasma metabolites in KO mice of the DEXA study", "format": "in vivo", "procedure": "In 20NHS PEG-htCBS C15S-treated KO mice, the plasma levels of Hcy, Cth, and Cys were measured biweekly over the course of the study and are shown in FIG. 16F. […] The level of Cys (top line) normalized with the treatment from less than 100 μM at day […] to about 200 μM at day 45 and sustained over the course of the study. The level of Cth (bottom line) oscillated around 50 μM throughout the duration of the study.\nPlasma metabolites were determined using the same mice/groups as described above. The end-point levels of metabolites Hcy, Cth, Cys, and Met were determined 24 hours after the last injection to the 20NHS PEG-htCBS C15S-treated KO mice (right bar for each metabolite) and compared with untreated healthy +/− (left bar) and affected −/− KO mice (middle bar), as shown in FIG. 16G. Table 20 provides the P-values used to determine significance for the differences in metabolite levels in the treated group compared to the two control groups."}, "[3]": {"test_system": "Hcy, Cth, Cys, and Met", "assay": "Plasma metabolites in I278T mice of the DEXA study", "format": "in vivo", "settings": "continuous long-term administration", "procedure": "Plasma metabolites were determined in the same mice/groups as described above and compared to each other. The left bar represents the level of metabolite for +/− healthy controls, and the middle bar represents the level of metabolite for −/− affected controls. The levels of each metabolite in 20NHS PEG-htCBS C15S-treated mice is represented by the right bar."}, "[4]": {"test_system": "I278T mice", "assay": "Eye defects (ciliary zonule) in I278T mice", "format": "in vivo, mouse", "settings": "7.5 mg/kg SC 3x/week from 2 days to 4 months of age", "procedure": "Mice were subjected to perfusion fixation with 4% paraformaldehyde in 1×PBS pH 7.4 (4% PFA) to preserve the walls of the eye globe. Eyes were carefully surgically removed, submerged into 4% PFA and a small hole was carefully made in the posterior globe of the eye right below the optic nerve to allow the fixative to permeate to the interior of the eye and fixate the structures overnight at 4° C. The samples were washed 3 times using filtered 1×PBS pH 7.4. After washing, the posterior globe of the eye was carefully dissected down to the level of the ciliary epithelium to expose the ciliary zonule. The sample was placed in 8% BSA blocking solution for 2 hours with shaking. After blocking, MAGP1 antibodies (Sigma) diluted 1:50 in 4% BSA were added to the sample and stored at 4° C. overnight. The next day, the sample was washed 6 times using 1×PBS pH 7.4, and Alexa 488 secondary antibodies (1:200, Invitrogen) were added to the sample and incubated for 2 hours at room temperature with shaking. […]\nThe changes in metabolite levels in plasma were measured in I278T (+/−) healthy heterozygous control mice, untreated −/− affected homozygous control mice, and 20NHS PEG-htCBS C15S-treated −/− homozygous I278T mice. […] Levels measured beginning at 72 hours after the injection as mice were on the treatment from 2 days of age."}, "[5]": {"assay": "Pharmacokinetics of 20NHS PEG-htCBS C15S in monkeys", "experimental": "The pharmacokinetic (PK) parameters were calculated using a non-compartmental curve stripping model which resolves a curve into a series of exponential terms corresponding to the absorption, distribution and elimination phases occurring during the time course of the enzyme in the blood. The curve stripping approach assumes that the disposition phases of the drug follow apparent first-order kinetics, which is evidenced by the linearity in the terminal portion of a semi-log plot. These calculations were made using a modeling program called PK Solutions 2.0 (Summit Solutions, Montrose, CO) using the mean plasma enzyme activity for each route of administration. The bioavailability was calculated by dividing the area under the curve (AUC) for the SC or IP route by the AUC observed after IV administration.\nFor the single dose PK study, three experimental groups of 4 (n=2M+2F) monkeys each were used to conduct the experiments. The first group received 2 mg/kg 20NHS PEG-htCBS C15S via IV injection. Blood was collected at 0, 0.083, 0.16, 0.25, 0.5, 1, 2, 4, 8, 24, 72, 120, and 192 hours post IV injection. The second and third groups received either 2 mg/kg or 6 mg/kg 20NHS PEG-htCBS C15S via SC injection. Blood was collected at 0, 1, 2, 4, 8, 24, 48, 72, 96, 120, 192, 240, and 336 hours post SC injection."}}, "note": "“And” between values parts separate entries of the source, which are not always exact repeats. Equal values may be shown once.", "data": [{"substance": "20NHS PEG-htCBS C15S: htCBS C15S PEGylated with ME-200GS PEG (20 kDa linear NHS ester-activated PEG)", "values": [{"measurement": "E Half-life", "setting": "[1]; 10 mg/kg IV", "result": "47.6 ± 14.6", "unit": "h"}, {"measurement": "average circulating time of a single enzyme molecule (MRT)", "setting": "[1]; mouse, in vivo", "result": "44 to 194", "unit": "h"}, {"measurement": "AUC(0-t) (obs area)", "setting": "[1]; mouse, in vivo, iv, 10 mg/kg", "result": "7431 ± 154", "unit": "mU-hr/μL"}, {"measurement": "CL (obs area)", "setting": "[1]; mouse, in vivo, iv, 10 mg/kg", "result": "1346 ± 27.3", "unit": "µL/h"}, {"measurement": "MRT (area)", "setting": "[1]; mouse, in vivo, iv, 10 mg/kg", "result": "52 ± 13", "unit": "h"}, {"measurement": "cmax (obs)", "setting": "[1]; mouse, in vivo, iv, 10 mg/kg", "result": "371.6 ± 11.2", "unit": "mU/μL"}, {"measurement": "AUC/dose", "setting": "[1]; mouse, in vivo, sc", "result": "612 (mU-h/mL)/(mg/kg)"}, {"measurement": "T1/2", "setting": "[1]; mouse, in vivo, sc", "result": 20, "unit": "h"}, {"measurement": "absorption half-life", "setting": "[1]; mouse, in vivo, sc", "result": "5 to 12", "unit": "h"}, {"measurement": "bioavailability in HO mice", "setting": "[1]; mouse, in vivo, sc", "result": "52-83%"}, {"measurement": "cmax/dose", "setting": "[1]; mouse, in vivo, sc", "result": "10 (mU/μL)/(mg/kg)"}, {"measurement": "tmax", "setting": "[1]; mouse, in vivo, sc", "result": 24, "unit": "h"}, {"measurement": "A Half-life", "setting": "[1]; mouse, in vivo, sc, 5 mg/kg", "result": "5.3 ± 1.1", "unit": "h"}, {"measurement": "AUC in mice", "setting": "[1]; mouse, in vivo, sc, 5 mg/kg", "result": 3060, "unit": "mU−h/mL"}, {"measurement": "CL (obs area)", "setting": "[1]; mouse, in vivo, sc, 5 mg/kg", "result": "1636 ± 86", "unit": "µL/h"}, {"measurement": "E Half-life", "setting": "[1]; mouse, in vivo, sc, 5 mg/kg", "result": "137 ± 95", "unit": "h"}, {"measurement": "MRT (area)", "setting": "[1]; mouse, in vivo, sc, 5 mg/kg", "result": "194 ± 128", "unit": "h"}, {"measurement": "cmax/dose", "setting": "[1]; mouse, in vivo, sc, 5 mg/kg", "result": 10.3}, {"measurement": "A Half-life", "setting": "[1]; mouse, in vivo, sc, 10 mg/kg", "result": "12.7 ± 0.6", "unit": "h"}, {"measurement": "Bioavailability", "setting": "[1]; mouse, in vivo, sc, 10 mg/kg", "result": 64.6, "unit": "%"}, {"measurement": "CL (obs area)", "setting": "[1]; mouse, in vivo, sc, 10 mg/kg", "result": "2113 ± 280", "unit": "µL/h"}, {"measurement": "E Half-life", "setting": "[1]; mouse, in vivo, sc, 10 mg/kg", "result": "17.5 ± 1.27", "unit": "h"}, {"measurement": "MRT (area)", "setting": "[1]; mouse, in vivo, sc, 10 mg/kg", "result": "44.8 ± 1.7", "unit": "h"}, {"measurement": "cmax (obs)", "setting": "[1]; mouse, in vivo, sc, 10 mg/kg", "result": "89.9 ± 10.2", "unit": "mU/μL"}, {"measurement": "cmax/dose", "setting": "[1]; mouse, in vivo, sc, 10 mg/kg", "result": 9.0}, {"measurement": "A Half-life", "setting": "[1]; mouse, in vivo, sc, 15 mg/kg", "result": "11.9 ± 1.2", "unit": "h"}, {"measurement": "Bioavailability", "setting": "[1]; mouse, in vivo, sc, 15 mg/kg", "result": 51.6, "unit": "%"}, {"measurement": "CL (obs area)", "setting": "[1]; mouse, in vivo, sc, 15 mg/kg", "result": "2609 ± 72", "unit": "µL/h"}, {"measurement": "E Half-life", "setting": "[1]; mouse, in vivo, sc, 15 mg/kg", "result": "22.0 ± 1.7", "unit": "h"}, {"measurement": "MRT (area)", "setting": "[1]; mouse, in vivo, sc, 15 mg/kg", "result": "49.0 ± 1.4", "unit": "h"}, {"measurement": "cmax (obs)", "setting": "[1]; mouse, in vivo, sc, 15 mg/kg", "result": "104.2 ± 11.3", "unit": "mU/μL"}, {"measurement": "cmax/dose", "setting": "[1]; mouse, in vivo, sc, 15 mg/kg", "result": 6.9}, {"measurement": "half-life determinations in the SC dose groups", "setting": "[1]; mouse, in vivo, sc, 15 mg/kg", "result": "17.5 to 137", "unit": "h"}, {"measurement": "plasma Hcy", "setting": "[2]; during treatment, from about 180 μM", "result": "about 90 μM"}, {"measurement": "plasma Cys", "setting": "[2]; during treatment, from less than 100 μM", "result": "about 200 μM"}, {"measurement": "plasma Cth", "setting": "[2]; throughout the study", "result": "around 50 μM"}, {"measurement": "Hcy, Cth, Cys and Met plasma levels vs untreated −/− mice", "setting": "[3]", "result": "significantly improved"}, {"measurement": "eye defects (zonular fibers)", "setting": "[4]", "result": "positive effect on the eye defects"}, {"measurement": "AUC(0-t) (obs area)", "setting": "[5]; 2 mg/kg IV", "result": "5942 ± 156", "unit": "mU-h/μl"}, {"measurement": "Bioavailability", "setting": "[5]; 2 mg/kg IV", "result": 100, "unit": "%"}, {"measurement": "CL (obs area)", "setting": "[5]; 2 mg/kg IV", "result": "22.4 ± 1.27", "unit": "mL/day/kg"}, {"measurement": "MRT (area)", "setting": "[5]; 2 mg/kg IV", "result": "89.9 ± 2.4", "unit": "h"}, {"measurement": "cp0", "setting": "[5]; 2 mg/kg IV", "result": "96.5 ± 2.8", "unit": "mU/μl"}, {"measurement": "AUC(0-t) (obs area)", "setting": "[5]; 2 mg/kg SC", "result": "5263 ± 299", "unit": "mU-h/μl"}, {"measurement": "Bioavailability", "setting": "[5]; 2 mg/kg SC", "result": "80.8 ± 4.7", "unit": "%"}, {"measurement": "MRT (area)", "setting": "[5]; 2 mg/kg SC", "result": "116.3 ± 2.4", "unit": "h"}, {"measurement": "cmax", "setting": "[5]; 2 mg/kg SC", "result": "40.8 mU/μl and 40.8 ± 2.0 mU/μl"}, {"measurement": "tmax (obs)", "setting": "[5]; 2 mg/kg SC", "result": "26.2 ± 2.6", "unit": "h"}, {"measurement": "AUC(0-t) (obs area)", "setting": "[5]; 6 mg/kg SC", "result": "15743 ± 629", "unit": "mU-h/μl"}, {"measurement": "Bioavailability", "setting": "[5]; 6 mg/kg SC", "result": "79.9 ± 3.5", "unit": "%"}, {"measurement": "MRT (area)", "setting": "[5]; 6 mg/kg SC", "result": "116.2 ± 5.0", "unit": "h"}, {"measurement": "cmax", "setting": "[5]; 6 mg/kg SC", "result": "114.9 mU/μl and 114.9 ± 7.5 mU/μl"}, {"measurement": "tmax (obs)", "setting": "[5]; 6 mg/kg SC", "result": "32.4 ± 2.4", "unit": "h"}, {"measurement": "CBS activity after repeated administrations", "setting": "[5]; 6 SC doses every 72 hours", "result": "no attenuation of CBS activity"}, {"measurement": "tmax", "setting": "[5]; Monkey/both sexes, SC", "result": 29, "unit": "h"}, {"measurement": "bioavailability (F %) after SC administration", "setting": "[5]; monkeys, both sexes, across SC doses, listed as OT-58", "result": 81, "unit": "%"}]}]}
